Source: paper PMC7614228, “Structural maturation of SYCP1-mediated meiotic chromosome synapsis by SYCE3” (Nature structural & molecular biology, 2023)
Several values for one entry are separate records, joined by “and”; a condition that tells them apart may be missing. Identical values can stand only once.

B1: SYCP1αNcore (amino-acids 206-362) (domain or fragment, human, UniProt Q15431 206-362, looked up)
chain: ETRQVYMDLNNNIEKMITAFEELRVQAENSRLEMHFKLKEDYEKIQHLEQEYKKEINDKEKQVSLLLIQITEKENKMKDLTFLLEESRDKVNQLEEKTKLQSENLKQSIEKQHHLTKELEDIKVSLQRSVSTQKALEEDLQIATKTICQLTEEKETQ
notes: SYCP1 αNcore (tetrameric core), amino-acids 206-362; Tetramer alone (SEC-MALS); two chains in the 2:1 complex with SYCE3; also called SYCP1 tetrameric core; source: E. coli BL21(DE3), purified alone or co-expressed and co-purified with SYCE3 (amylose, TEV, anion exchange, SEC); not shown: MBP, N-terminal, cleaved
B2: MBP-SYCP1αNcore (amino-acids 206-362) (domain or fragment, human, UniProt Q15431 206-362, looked up)
chain: ETRQVYMDLNNNIEKMITAFEELRVQAENSRLEMHFKLKEDYEKIQHLEQEYKKEINDKEKQVSLLLIQITEKENKMKDLTFLLEESRDKVNQLEEKTKLQSENLKQSIEKQHHLTKELEDIKVSLQRSVSTQKALEEDLQIATKTICQLTEEKETQ
notes: SYCP1 αNcore (tetrameric core), amino-acids 206-362; source: E. coli BL21(DE3), co-expressed with SYCE3 constructs; in lysate (amylose pull-down) or co-purified (amylose, anion exchange, SEC); not shown: MBP, N-terminal, kept
B3: SYCP1αN (amino-acids 101-362) (domain or fragment, human, UniProt Q15431 101-362, looked up)
chain: GLSRVYSKLYKEAEKIKKWKVSTEAELRQKESKLQENRKIIEAQRKAIQELQFGNEKVSLKLEEGIQENKDLIKENNATRHLCNLLKETCARSAEKTKKYEYEREETRQVYMDLNNNIEKMITAFEELRVQAENSRLEMHFKLKEDYEKIQHLEQEYKKEINDKEKQVSLLLIQITEKENKMKDLTFLLEESRDKVNQLEEKTKLQSENLKQSIEKQHHLTKELEDIKVSLQRSVSTQKALEEDLQIATKTICQLTEEKETQ
notes: SYCP1 α-helical N-terminal region, amino-acids 101-362; source: E. coli BL21(DE3), purified, alone or co-expressed and co-purified with SYCE3
B4: MBP-SYCP1αN (domain or fragment, human, UniProt Q15431 101-362, looked up)
chain: GLSRVYSKLYKEAEKIKKWKVSTEAELRQKESKLQENRKIIEAQRKAIQELQFGNEKVSLKLEEGIQENKDLIKENNATRHLCNLLKETCARSAEKTKKYEYEREETRQVYMDLNNNIEKMITAFEELRVQAENSRLEMHFKLKEDYEKIQHLEQEYKKEINDKEKQVSLLLIQITEKENKMKDLTFLLEESRDKVNQLEEKTKLQSENLKQSIEKQHHLTKELEDIKVSLQRSVSTQKALEEDLQIATKTICQLTEEKETQ
notes: SYCP1αN, amino-acids 101-362; source: E. coli BL21(DE3), co-purified with His-SYCE3

How the values were obtained:
[1] = target: B1; assay: SEC-MALS; co-expressed and co-purified SYCP1-SYCE3 complexes, 5-20 mg/ml; 20 mM Tris pH 8.0, 150 mM KCl, 2 mM DTT (Superose 6 Increase for MBP-SYCP1αN-His-SYCE3); settings: both partners purified
[2] = target: B3; assay: as above; settings: both partners purified
[3] = target: B1; assay: ITC; SYCE3 (400 μM) injected into SYCP1αNcore (70 μM) at 30°C; 25 mM Tris pH 8.0, 250 mM KCl, 2 mM DTT; apparent affinity; settings: both partners purified
[4] = target: the molecule itself; assay: SEC-MALS; co-expressed and co-purified SYCP1-SYCE3 complexes, 5-20 mg/ml; 20 mM Tris pH 8.0, 150 mM KCl, 2 mM DTT (Superose 6 Increase for MBP-SYCP1αN-His-SYCE3)
[5] = target: the molecule itself; assay: SEC-MALS; proteins in isolation, 5-20 mg/ml; Superdex 200 Increase, 20 mM Tris pH 8.0, 150 mM KCl, 2 mM DTT
MBP-SYCP1αN = target: B4; assay: SEC-MALS; co-expressed and co-purified SYCP1-SYCE3 complexes, 5-20 mg/ml; 20 mM Tris pH 8.0, 150 mM KCl, 2 mM DTT (Superose 6 Increase for MBP-SYCP1αN-His-SYCE3); settings: both partners purified
[6] = target: B2; assay: as above; settings: both partners purified

Row | Binder | stoichiometry N [1] | stoichiometry N [4] | other results
1 | SYCE3 P53Q (natural protein, human, UniProt A1L190 1-88, looked up, SYCE3 with P53Q; source: E. coli BL21(DE3), co-purified with SYCP1αNcore; not shown: His or His-MBP, N-terminal, cleaved) MDDADPEERNYDNMLKMLSDLNKDLEKLLEEMEKISVQATWMAYDMVVMRTNQTLAESMRRLEDAFVNCKEEMEKNWQELLHETKQRL | 2 SYCP1 chains per SYCE3 chain |  | 
2 | SYCE3 W41E Y44E (natural protein, human, UniProt A1L190 1-88, looked up, SYCE3 with W41E Y44E; also called SYCE3 WY; WY mutant; source: E. coli BL21(DE3), purified, alone or co-purified with SYCP1 constructs; not shown: His or His-MBP, N-terminal, cleaved) MDDADPEERNYDNMLKMLSDLNKDLEKLLEEMEKISVQATEMAEDMVVMRTNPTLAESMRRLEDAFVNCKEEMEKNWQELLHETKQRL | 2 SYCP1 chains per SYCE3 chain |  | stoichiometry N [2]: 2 SYCP1 chains per SYCE3 chain; Kd [3]: 16 nM; apparent KD of one replicate [3]: 10 nM and 22 nM and 16 nM
3 | B1 |  | 2 SYCP1 chains in the complex with SYCE3 | stoichiometry N [5]: 4
4 | SYCP1 αCore-ΔNtip (amino-acids 112-783) (domain or fragment, human, UniProt Q15431 112-783, looked up, SYCP1 α-helical core without the αNtip, amino-acids 112-783; also called SYCP1's full α-helical core, in which αNtips were deleted; source: E. coli BL21(DE3), purified, alone or in complex with SYCE3) EAEKIKKWKVSTEAELRQKESKLQENRKIIEAQRKAIQELQFGNEKVSLKLEEGIQENKDLIKENNATRHLCNLLKETCARSAEKTKKYEYEREETRQVYMDLNNNIEKMITAFEELRVQAENSRLEMHFKLKEDYEKIQHLEQEYKKEINDKEKQVSLLLIQITEKENKMKDLTFLLEESRDKVNQLEEKTKLQSENLKQSIEKQHHLTKELEDIKVSLQRSVSTQKALEEDLQIATKTICQLTEEKETQMEESNKARAAHSFVVTEFETTVCSLEELLRTEQQRLEKNEDQLKILTMELQKKSSELEEMTKLTNNKEVELEELKKVLGEKETLLYENKQFEKIAEELKGTEQELIGLLQAREKEVHDLEIQLTAITTSEQYYSKEVKDLKTELENEKLKNTELTSHCNKLSLENKELTQETSDMTLELKNQQEDINNNKKQEERMLKQIENLQETETQLRNELEYVREELKQKRDEVKCKLDKSEENCNNLRKQVENKNKYIEELQQENKALKKKGTAESKQLNVYEIKVNKLELELESAKQKFGEITDTYQKEIEDKKISEENLLEEVEKAKVIADEAVKLQKEIDKRCQHKIAEMVALMEKHKHQYDKIIEERDSELGLYKSKEQEQSSLRASLEIELSNLKAELLSVKKQLEIEREEKEKLKREAKE |  | 2 SYCP1 chains in the complex with SYCE3 | stoichiometry N [5]: 4
5 | SYCE3 α1-α2 (amino-acids 12-88) (domain or fragment, human, UniProt A1L190 12-88, looked up, SYCE3 α1-α2, amino-acids 12-88; source: E. coli BL21(DE3), co-purified with SYCP1αNcore; not shown: His or His-MBP, N-terminal, cleaved) DNMLKMLSDLNKDLEKLLEEMEKISVQATWMAYDMVVMRTNPTLAESMRRLEDAFVNCKEEMEKNWQELLHETKQRL | 2 SYCP1 chains per SYCE3 chain |  | 
6 | His-SYCE3 (full-length, amino-acids 1-88) (natural protein, human, UniProt A1L190 1-88, looked up, SYCE3, full-length = amino-acids 1-88; source: E. coli BL21(DE3), co-expressed with MBP fusions; in lysate (amylose pull-down) or co-purified; not shown: His, N-terminal, kept) MDDADPEERNYDNMLKMLSDLNKDLEKLLEEMEKISVQATWMAYDMVVMRTNPTLAESMRRLEDAFVNCKEEMEKNWQELLHETKQRL |  |  | stoichiometry N (MBP-SYCP1αN): 2 SYCP1 chains per SYCE3 chain (2:1) and 4 SYCP1 chains with 2 SYCE3 chains (4:2); stoichiometry N [6]: 2 SYCP1 chains per SYCE3 chain
7 | MBP-SYCE3 (natural protein, human, UniProt A1L190 1-88, looked up, SYCE3 without a stated truncation; source: E. coli BL21(DE3), co-purified with SYCP1αNcore constructs) MDDADPEERNYDNMLKMLSDLNKDLEKLLEEMEKISVQATWMAYDMVVMRTNPTLAESMRRLEDAFVNCKEEMEKNWQELLHETKQRL | 2 SYCP1 chains per SYCE3 chain |  | stoichiometry N [6]: 2 SYCP1 chains per SYCE3 chain
8 | B2 |  | 2 SYCP1 chains in the complex with SYCE3 | 
9 | B3 |  | 2 SYCP1 chains in the 2:1 complex with SYCE3 and 4 SYCP1 chains in the 4:2 complex with SYCE3 | 
10 | SYCP1αN ΔNtip (domain or fragment, human, UniProt Q15431 112-362, looked up, SYCP1αN (101-362) with the αNtip (101-111) deleted; also called SYCP1 ΔNtip; source: E. coli BL21(DE3), co-purified with SYCE3) EAEKIKKWKVSTEAELRQKESKLQENRKIIEAQRKAIQELQFGNEKVSLKLEEGIQENKDLIKENNATRHLCNLLKETCARSAEKTKKYEYEREETRQVYMDLNNNIEKMITAFEELRVQAENSRLEMHFKLKEDYEKIQHLEQEYKKEINDKEKQVSLLLIQITEKENKMKDLTFLLEESRDKVNQLEEKTKLQSENLKQSIEKQHHLTKELEDIKVSLQRSVSTQKALEEDLQIATKTICQLTEEKETQ |  | 2 SYCP1 chains in the complex with SYCE3 | 
11 | SYCP1αN V105E L109E (domain or fragment, human, UniProt Q15431 101-362, looked up, SYCP1αN, amino-acids 101-362, with V105E L109E; source: E. coli BL21(DE3), in complex with SYCE3) GLSREYSKEYKEAEKIKKWKVSTEAELRQKESKLQENRKIIEAQRKAIQELQFGNEKVSLKLEEGIQENKDLIKENNATRHLCNLLKETCARSAEKTKKYEYEREETRQVYMDLNNNIEKMITAFEELRVQAENSRLEMHFKLKEDYEKIQHLEQEYKKEINDKEKQVSLLLIQITEKENKMKDLTFLLEESRDKVNQLEEKTKLQSENLKQSIEKQHHLTKELEDIKVSLQRSVSTQKALEEDLQIATKTICQLTEEKETQ |  | 2 SYCP1 chains in the complex with SYCE3 | 
12 | B4 |  | 2 SYCP1 chains in the 2:1 complex with SYCE3 and 4 SYCP1 chains in the 4:2 complex with SYCE3 | 
